The values that follow come from US20130266566A1.

Test [1] deals with Antibody 16 IgG1, not germlined. The experiment in a line: competition binding assay: Antibody 16 IgG adsorbed to the plate, biotinylated active human PAI-1 plus a titration of the unlabelled competitor, streptavidin-Europium detection.
Test [2] deals with active human PAI-1, recombinant, wild-type, non-glycosylated (E. coli) (human) (UniProt P05121). The experiment in a line: cell-based or functional assay.
The next test deals with T1, rat PAI-1 (rat) (UniProt P20961).
T1 sequence: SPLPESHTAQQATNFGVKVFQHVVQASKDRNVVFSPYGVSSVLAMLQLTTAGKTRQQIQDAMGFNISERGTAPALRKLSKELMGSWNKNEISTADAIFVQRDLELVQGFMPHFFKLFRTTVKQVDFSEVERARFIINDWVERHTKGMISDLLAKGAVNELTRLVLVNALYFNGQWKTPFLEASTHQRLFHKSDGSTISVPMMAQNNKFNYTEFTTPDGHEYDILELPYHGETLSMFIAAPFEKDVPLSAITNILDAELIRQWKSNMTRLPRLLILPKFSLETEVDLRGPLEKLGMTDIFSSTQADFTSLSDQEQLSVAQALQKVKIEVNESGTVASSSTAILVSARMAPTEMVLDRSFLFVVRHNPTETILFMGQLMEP
The experiment in a line: cell-based or functional assay.

Sequence of active human PAI-1, recombinant, wild-type, non-glycosylated (E. coli) (human) (P05121 24-402): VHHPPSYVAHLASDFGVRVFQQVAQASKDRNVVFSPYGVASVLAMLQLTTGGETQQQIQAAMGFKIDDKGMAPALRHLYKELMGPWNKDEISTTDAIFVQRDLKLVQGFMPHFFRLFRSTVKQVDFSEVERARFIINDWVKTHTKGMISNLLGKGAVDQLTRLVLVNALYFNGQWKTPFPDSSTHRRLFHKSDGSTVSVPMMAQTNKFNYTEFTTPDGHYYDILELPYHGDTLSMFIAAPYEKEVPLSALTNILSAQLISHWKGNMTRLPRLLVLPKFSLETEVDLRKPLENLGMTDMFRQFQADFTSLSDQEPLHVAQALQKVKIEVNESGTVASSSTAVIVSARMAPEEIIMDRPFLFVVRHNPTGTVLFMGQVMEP

B1: mouse PAI-1 (protein)
chain: ALPLRESHTAHQATDFGVKVFQQVVQASKDRNVVFSPYGVSSVLAMLQMTTAGKTRRQIQDAMGFKVNEKGTAHALRQLSKELMGPWNKNEISTADAIFVQRDLELVQGFMPHFFKLFQTMVKQVDFSEVERARFIINDWVERHTKGMINDLLAKGAVDELTRLVLVNALYFSGQWKTPFLEASTHQRLFHKSDGSTVSVPMMAQSNKFNYTEFTTPDGLEYDVVELPYQGDTLSMFIAAPFEKDVHLSALTNILDAELIRQWKGNMTRLPRLLILPKFSLETEVDLRGPLEKLGMPDMFSATLADFTSLSDQEQLSVAQALQKVRIEVNESGTVASSSTAFVISARMAPTEMVIDRSFLFVVRHNPTETILFMGQVMES
Take B1: the IC50 (read off the curve) in test [1] was 6 nM.

B2: Antibody 18 scFv (scFv, V domains shown, part only)
VH: QVQLQQSGAEVKKPGSSVKVSCKASGGTFSSYAISWVRQAPGQGLEWMGGIIPTFGTANYAQKLQGRVTITADESTSTAYMELSGLRSEDTAVYYCAREKRQWLEGHFDYWGRGTPVTVSS
VL: DIQMTQSPSFLSASIGDRVTITCRASEGIYHALAWYQQKPGKAPKLLIYRASSLASGAPSRFSGSGSGTDFTLTISSLQPDDFATYYCQQYSNYPLTFGGGTKLEIK
modifications: linker not stated
On to B2, for which, in test [2], the Chromogenic (IC50 in nM) human was 1.3 nM. Also, in the test with rat PAI-1 (rat), the Chromogenic (IC50 in nM) rat turned out to be 238 nM; the Chromogenic IC50 ratio rat/human is 190 fold; the HT-1080 Exo PAI-1 (IC50 in nM) rat was 37 nM; the IC50 in the rat chromogenic assay, fold higher than in the human assay came out at 180 fold.
